According to paper PMC3386944:

Biological target: HER3 receptor (human (endogenous in AU565)) (UniProt P21860)
Chain of UniProt P21860 (P21860 20-1342): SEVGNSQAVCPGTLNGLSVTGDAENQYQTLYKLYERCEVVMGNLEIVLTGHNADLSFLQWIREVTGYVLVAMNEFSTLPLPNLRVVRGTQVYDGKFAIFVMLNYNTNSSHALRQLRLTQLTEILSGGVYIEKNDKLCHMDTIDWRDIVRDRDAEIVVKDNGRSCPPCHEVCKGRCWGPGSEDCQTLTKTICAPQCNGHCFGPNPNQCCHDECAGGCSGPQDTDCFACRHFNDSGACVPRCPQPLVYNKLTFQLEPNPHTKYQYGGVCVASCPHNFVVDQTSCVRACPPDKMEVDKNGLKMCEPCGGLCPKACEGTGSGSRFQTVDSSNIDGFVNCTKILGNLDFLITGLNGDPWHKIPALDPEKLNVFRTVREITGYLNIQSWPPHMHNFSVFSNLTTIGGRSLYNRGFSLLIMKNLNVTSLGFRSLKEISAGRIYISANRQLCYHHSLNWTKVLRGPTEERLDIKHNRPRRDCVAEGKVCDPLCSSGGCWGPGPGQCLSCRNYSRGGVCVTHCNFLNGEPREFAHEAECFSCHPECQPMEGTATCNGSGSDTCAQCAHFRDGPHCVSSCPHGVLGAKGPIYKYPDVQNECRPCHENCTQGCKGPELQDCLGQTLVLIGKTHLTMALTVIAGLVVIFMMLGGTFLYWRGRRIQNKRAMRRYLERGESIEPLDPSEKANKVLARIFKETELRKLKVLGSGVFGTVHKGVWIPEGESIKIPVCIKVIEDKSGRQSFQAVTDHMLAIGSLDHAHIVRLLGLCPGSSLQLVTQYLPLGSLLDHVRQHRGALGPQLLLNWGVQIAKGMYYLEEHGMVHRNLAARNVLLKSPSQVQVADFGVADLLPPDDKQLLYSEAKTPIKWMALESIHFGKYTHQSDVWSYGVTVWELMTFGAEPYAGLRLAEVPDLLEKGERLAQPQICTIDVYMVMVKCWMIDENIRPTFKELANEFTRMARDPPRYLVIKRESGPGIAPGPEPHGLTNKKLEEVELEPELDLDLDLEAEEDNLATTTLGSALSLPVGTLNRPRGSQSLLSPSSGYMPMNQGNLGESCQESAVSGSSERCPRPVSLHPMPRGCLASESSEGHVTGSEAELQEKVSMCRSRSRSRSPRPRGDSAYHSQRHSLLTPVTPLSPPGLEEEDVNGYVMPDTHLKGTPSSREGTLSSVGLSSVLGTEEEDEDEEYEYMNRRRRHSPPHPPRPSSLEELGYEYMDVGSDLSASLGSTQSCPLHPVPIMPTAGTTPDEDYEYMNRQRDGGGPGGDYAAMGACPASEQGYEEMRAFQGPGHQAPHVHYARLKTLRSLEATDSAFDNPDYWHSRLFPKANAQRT

## heregulin (HRG, NRG1-β1/HRG1-β1 ECD domain), biotinylated (ligand)
  IC50 of Affibody molecule Z05416 (no letters) for inhibition of growth of MCF-7 cells induced by 40 pM HRG (EGF domain construct), 5 days, CCK-8: 19 nM
  IC50 of Affibody molecule Z05416 (no letters) for inhibition of growth of SKBR-3 cells induced by 40 pM HRG (EGF domain construct), 5 days, CCK-8: 73 nM
  IC50 of Affibody molecule Z05417 (no letters) for inhibition of growth of MCF-7 cells induced by 40 pM HRG (EGF domain construct), 5 days, CCK-8: 15 nM
  IC50 of Affibody molecule Z05417 (no letters) for inhibition of growth of SKBR-3 cells induced by 40 pM HRG (EGF domain construct), 5 days, CCK-8: 65 nM
